According to patent publication US20230287092A1 (AstraZeneca / MedImmune, published 2023):

Biological target: cynomolgus monkey Aβ42 (cynomolgus monkey, UniProt P53601 672-713)
Assay: cell-based or functional assay

Chain of cynomolgus monkey Aβ42 (P53601 672-713 limits assumed): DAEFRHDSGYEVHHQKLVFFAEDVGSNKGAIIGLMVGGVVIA

- increase in total CSF Aβ42, 14 weekly doses, cynomolgus monkeys: ≤ 7.7 fold
- increase in total plasma Aβ42 against control, 14 weekly doses (10 or 100 mg/kg IV, 75 mg/kg SC), cynomolgus monkeys: ≤ 2060 fold
B1: MEDI1814 (antibody, V domains shown)
VH: EVQLLESGGGLVQPGGSLRLSCAASMGNFNYQTMWWVRQAPGKGLEWVSVIGKTNENIAYADSVKGRFTISRDNSKNTLYLQMNSLRAEDTAVYYCAREWMDHSRPYYYYGMDVWGQGTLVTVSS
VL: SYELTQPPSVSVSPGQTASITCSGHNLEDKFASWYQQKPGQSPVLVIYRDDKRPSGIPERFSASNSGHTATLTISGTQAMDEADYYCSSQDTVTRVFGGGTKLTVL
